Here are results for six molecules from patent US6673332 (University of California, dated 2004).

The chains are these.
B1: GST-KLC2 (glutathione S-transferase fused to kinesin light chain 2, 591 amino acids of the largest cDNA clone) (other, UniProt O88448 9-599, looked up, not shown: a dimerising Fc or GST)
chain: EEKLSQDEIVLGTKAVIQGLETLRGEHRALLAPLASHEAGEAEPGSQERCLLLRRSLEAIELGLGEAQVILALSSHLGAVESEKQKLRAQVRRLVQENQWLREELAGTQQKLQRSEQAVAQLEEEKQHLLFMSQIRKLDEMLPQEEKGDVPKDSLDDLFPNEDEQSPAPSPGGGDVAAQHGGYEIPARLRTLHNLVIQYASQGRYEVAVPLCKQALEDLEKTSGHDHPDVATMLNILALVYRDQNKYKDAAHLLNDALAIREKTLGKDHPAVAATLNNLAVLYGKRGKYKEAEPLCKRALEIREKVLGKFHPDVAKQLSNLALLCQNQGKAEEVEYYYRRALEIYATRLGPDDPNVAKTKNNLASCYLKQGKYQDAETLYKEILTRAHEKEFGSVNGENKPIWMHAEEREESKDKRRDRRPMEYGSWYKACKVDSPTVNTTLRTLGALYRPEGKLEAAHTLEDCASRSRKQGLDPASQTKVVELLKDGSGRGHRRGSRDVAGPQSESDLEESGPAAEWSGDGSGSLRRSGSFGKLRDALRRSSEMLVRKLQGGGPQEPNSRMKRASSLNFLNKSVEEPVQPGGRVFLTAAL
notes: also called GST fused to full-length KLC2
B2: GST-KLC1 (glutathione S-transferase fused to kinesin light chain 1, all but the first seven amino acids) (other, UniProt O88447 8-541, looked up, not shown: a dimerising Fc or GST)
chain: MVYIKEEKLENVTQDEIISKTKQVIQGLEALKNEHNSILQSLLETLKCLKKDDESNLVEEKSSMIRKSLEMLELGLSEAQVMMALSNHLNAVESEKQNVRAQVRRLCQENQWLRDELANTQQKLQKSEQSVAQLEEEKKHLEFMNQLKKYDDDISPSEDKDSDSSKEPLDDLFPNDEDEPGQGIQHSDSSAAAARQGYEIPARLRTLHNLVIQYASQGRYEVAVPSCKQALEDLEKTSGHDHPDVATMLNILALVYRDQNKYKDAANLLNDALAIREKTLGRDHPAVAATLNNLAVLYGKRGKYKEAEPLCKRALEIREKVLGKDHPDVAKQLNNLALLCQNQGKYEEVEYYYQRALGIYQTKLGPDRTPNVAKTKNNLASCYLKQGKFKQAETLYKEILTRAHEAEFGSVDDENKPIWMHAEEREECKGKQKDGSAFGEYGGWYKACKVDSPTVTTTLKNLGALYRRQGKFEAAETLEEAAMRSRKQGLDNVHKQRVAEVLNDPESMEKRRSRESLNMDVVKYESGPDGGEEA
notes: range 8-end; also called GST fused to full-length KLC1
B3: GST-CC (GST fusion protein of the N-terminal coiled coil domain of KLC, amino acids 30-200) (other, UniProt O88447 30-200, looked up)
chain: QVIQGLEALKNEHNSILQSLLETLKCLKKDDESNLVEEKSSMIRKSLEMLELGLSEAQVMMALSNHLNAVESEKQNVRAQVRRLCQENQWLRDELANTQQKLQKSEQSVAQLEEEKKHLEFMNQLKKYDDDISPSEDKDSDSSKEPLDDLFPNDEDEPGQGIQHSDSSAAA
notes: range 30-200; not shown: glutathione S-transferase
B4: KIF5B-His fusion protein (amino acids 499-783 of KIF5B, His-tagged, pET-23b) (other, UniProt Q61768 499-783, looked up)
chain: AVNYDQKSQEVEDKTKEYELLSDELNQKSATLASIDAELQKLKEMTNHQKKRAAEMMASLLKDLAEIGIAVGNNDVKQPEGTGMIDEEFTVARLYISKMKSEVKTMVKRCKQLESTQTESNKKMEENEKELAACQLRISQHEAKIKSLTEYLQNVEQKKRQLEESVDSLGEELVQLRAQEKVHEMEKEHLNKVQTANEVKQAVEQQIQSHRETHQKQISSLRDEVEAKEKLITDLQDQNQKMVLEQERLRVEHERLKATDQEKSRKLHELTVMQDRREQARQDLK
notes: range 499-783; also called C-terminal stalk of KIF5B; KIF5B construct; not shown: His tag of vector pET-23b
B5: GST-TPR (GST fusion protein of the TPR domains of KLC1, amino acids 167-541) (other, UniProt O88447 167-541, looked up)
chain: KDSDSSKEPLDDLFPNDEDEPGQGIQHSDSSAAAARQGYEIPARLRTLHNLVIQYASQGRYEVAVPSCKQALEDLEKTSGHDHPDVATMLNILALVYRDQNKYKDAANLLNDALAIREKTLGRDHPAVAATLNNLAVLYGKRGKYKEAEPLCKRALEIREKVLGKDHPDVAKQLNNLALLCQNQGKYEEVEYYYQRALGIYQTKLGPDRTPNVAKTKNNLASCYLKQGKFKQAETLYKEILTRAHEAEFGSVDDENKPIWMHAEEREECKGKQKDGSAFGEYGGWYKACKVDSPTVTTTLKNLGALYRRQGKFEAAETLEEAAMRSRKQGLDNVHKQRVAEVLNDPESMEKRRSRESLNMDVVKYESGPDGGEEA
notes: range 167-541; The range is printed without a hyphen (167541); not shown: glutathione S-transferase
B6: synaptophysin, endogenous, mouse extracts (other, UniProt Q62277 1-314, looked up)
chain: MLLLADMDVVNQLVAGGQFRVVKEPLGFVKVLQWVFAIFAFATCGSYTGELRLSVECANKTESALNIEVEFEYPFRLHQVYFDAPSCVKGGTTKIFLVGDYSSSAEFFVTVAVFAFLYSMGALATYIFLQNKYRENNKGPMMDFLATAVFAFMWLVSSSAWAKGLSDVKMATDPENIIKEMPMCRQTGNTCKELRDPVTSGLNTSVVFGFLNLVLWVGNLWFVFKETGWAAPFMRAPPGAPEKQPAPGDAYGDAGYGQGPGGYGPQDSYGPQGGYQPDYGQPASGGGGGYGPQGDYGQQGYGQQGAPTSFSNQM
notes: also called SYP

Experiment [1] concerns the target T1, GFP alone (UniProt P42212 1-238 = GFP, limits assumed).
T1 construct: Control
As to the kind of experiment: GST pull-down on glutathione agarose beads, Western blot for GFP. The method, then:
(§1) Briefly, purified GST, GST-KLC1 and GST-KLC2 bound to glutathione agarose beads were incubated with 10 μg of indicated purified fusion protein in 150 μl Buffer B (20 mM Tris-Cl, pH 7.5, 50 mM KCl, 100 mM NaCl, 2 mM CaCl_2, 2 mM MgCl_2, 5 mM DTT, 1% BSA, and protease inhibitors) for 1 hr at 4° C. For the antibody inhibition experiments, the antibody was pre-bound to the beads for 1 hr at 4° C. and then incubated for 1 hr with the indicated protein. The unbound protein (in 150 μl total volume) was saved, and the beads were washed three times with Buffer B. Bound proteins were eluted with 50 μl of elution buffer (50 mM glutathione, 50 mM Tris-Cl, pH 8.0). The bound (50 μl) and unbound (50 μl, i.e., one-third of total volume) proteins were then analyzed by SDS-PAGE followed by Western blotting.
To test for direct interactions between the cytoplasmic C-terminal domain of APP and KLC, in vitro binding assays using GST fusion proteins were conducted. The results are shown in FIG. 5, Panel A. GST fused to full-length KLC1 (GST-KLC1) or full-length KLC2 (GST-KLC2) was incubated with a protein consisting of the C-terminal tail of APP fused to GFP (APP-GFP). APP-GFP bound to both GST-KLC1 and GST-KLC2 but not to GST alone. […]

Experiment [2] addresses T1, GFP alone. The experiment can be described thus: GST pull-down on glutathione agarose beads, Western blot for GFP; also under five buffer conditions. On the procedure: as §1
In addition, the binding of APP-GFP or GFP alone to either GST-KLC1 or GST using four other buffers than Buffer B, namely (1) Buffer B without Ca^2+, (2) Buffer B+500 mM NaCl+1% NP-40, (3) Buffer A from sucrose gradients (10 mM HEPES, pH 7.3, 0.5 mM EGTA, 0.5 mM EGTA, 0.5 mM MgCl_2, and (4) PBS (137 mM NaCl, 2.7 mM KCl, 4.3 mM Na_2HPO_4 7 H_2O, 1.4 mM KH_2PO_4) were tested.
To test for direct interactions between the cytoplasmic C-terminal domain of APP and KLC, in vitro binding assays using GST fusion proteins were conducted. […]

Experiment [3] addresses T2, APP-GFP fusion protein (C-terminal 42 amino acids of human APP fused to GFP, from a His-tagged pRSETb-EGFP … (human, UniProt P05067 729-770; P42212 1-238 = GFP).
T2 construct: Expressed in bacteria, purified on Ni-NTA-agarose; also called C-terminal tail of APP fused to GFP; APP C-terminus; not shown: His tag and leader of the pRSETb vector
The experiment can be described thus: GST pull-down, Western blot for GFP. On the procedure: as §1
(§2) To test directly if the C-terminus of APP interacts with the TPR domains of KLC, GST pull-down assays were conducted using GST fusion proteins of KLC1 that contained either the TPR domains (GST-TPR) or only the N-terminal coiled-coil region (GST-CC) (See, FIG. 5, Panel E). Purified APP-GFP protein bound to GST-TPR and not to GST-CC or to GST alone. In contrast, a KIF5B construct that contains part of a region previously found to bind to KLC (Diefenbach et al., [1998], supra; and Gauger and Goldstein, [1993], supra) bound to GST-CC, and not to GST-TPR.
A general note: Immunoblotting shows a protein as a band on a membrane.

The target of experiment [4] is T1, GFP alone. The experiment can be described thus: GST pull-down, Western blot for GFP. On the procedure:
as §1, §2

Experiment [5] deals with B5. The experiment can be described thus: GST pull-down, Western blot for the His tag. On the procedure:
as §1, §2

For experiment [6], the target named is APP (amyloid precursor protein), endogenous, from mouse brain and sciatic nerve extracts (mouse, UniProt P12023 18-770, limits assumed). As to the kind of experiment: co-immunoprecipitation from mouse brain and sciatic nerve extracts, Western blot. From the text:
Mouse brain (left side of panel; IP brain) or sciatic nerve (right side of panel; Supe) extracts were immunoprecipitated with a no antibody control (No Ab), the 63–90 antibody (which recognizes both KLC1 and KLC2; i.e., kinesin light chains 1 and 2), antibodies to KIF5B (ubiquitous KHC), or APP (C-terminal polyclonal antibody) or synaptotagmin (SYT). Panel B provides results showing the specificity of kinesin-I co-immunoprecipitation with APP. Co-immunoprecipitation of APP with KLC from wild-type (wt) and mutant (−/−) KLC1 brain extracts was done using 63–90 or antibodies specific to either KLC1 or KLC2, and then analyzed by Western blots using either 63–90 or APP (22C11) antibodies. Panel C provides results showing KLC1 dependence of KHC complexes with APP. Co-immunoprecipitation of APP with KHC from wild-type (wt) and mutant (−/−) KLC1 brain extracts were performed using antibodies to three different KHC subunits (KIF5A, KIF5B and KIF5C), and then analyzed by Western blots using either 63–90 or APP (22C11) antibodies, as shown in this Panel. […]
Sufficient quantities of either anti-KLC1 and anti-KLC2 (Rahman et al., [1998], supra), or anti-KIF5A and anti-KIF5B antibodies (Niclas et al., Neuron 12:1059–1072 [1994]) were added to the precleared lysate so as to completely immunoprecipitate the antigens in the lysate. […]

For the molecule B1, the binding result in experiment [1] is “no binding”.

As to B2, in experiment [2], the binding result is reported as “no binding”.

With B3, the binding result in experiment [3] and in experiment [4] was “no binding” in each case.

As for B4, the binding result in experiment [5] was “no binding”.

B5: the binding result in experiment [4] is “no binding”.

Regarding B6, the binding result in experiment [6] is “no binding”.
